Results published in patent publication US20120190819A1 (MEDICAL RESEARCH COUNCIL, published 2012).
Changes are numbered by the printed parent chain.

B1: Apt34 (peptide aptamer 034 in truncated STM) (designed binder)
chain: MIPWGLSEAKPATPEIQEIVDKVKPQLEEKTNETYGKLEAVQYKTQVDAGTNYYIKVRAGDNKYMHLKVFNGPSVNKPLPSLPSLPVYGP
notes: Truncated by a frame-shift and an out-of-frame stop codon
B2: AptA (peptide aptamer A in truncated STM) (designed binder)
chain: MIPWGLSEAKPATPEIQEIVDKVKPQLEEKTNETYGKLEAVQYKTQVDAGTNYYIKVRAGDNKYMHLKVFNGPRLNKPLPSLPV
notes: Scaffold ends at the in-frame stop codon after the 11mer (unconstrained C-terminal peptide); also called PepA; pepA
B3: Apt32 (peptide aptamer 032 in truncated STM) (designed binder)
chain: B2 chain with R74L, L75P, V84L
notes: Scaffold ends at the in-frame stop codon after the 11mer; also called Pep32
B4: Apt124 (peptide aptamer 124 in truncated STM) (designed binder)
chain: B2 chain with L75G, S81A, V84L
notes: Scaffold ends at the in-frame stop codon after the 11mer
B5: control peptide aptamer RLNKPLPSLPVG* (truncated STM) (designed binder)
chain: MIPWGLSEAKPATPEIQEIVDKVKPQLEEKTNETYGKLEAVQYKTQVDAGTNYYIKVRAGDNKYMHLKVFNGPRLNKPLPSLPVG
notes: Ends at a stop codon after the added G (unconstrained control)
B6: re-constrained AptA, RLNKPLPSLPVH in full-length STM (designed binder)
chain: MIPWGLSEAKPATPEIQEIVDKVKPQLEEKTNETYGKLEAVQYKTQVDAGTNYYIKVRAGDNKYMHLKVFNGPRLNKPLPSLPVHGPPGQNEDLVLTGYQVDKNKDDELTGF
notes: Stop codon of AptA replaced, making a full-length aptamer constrained in STM
B7: re-constrained AptA, RLNKPLPSLPVR in full-length STM (designed binder)
chain: B6 chain with H85R
notes: as for B6
B8: re-constrained AptA, RLNKPLPSLPVN in full-length STM (designed binder)
chain: B6 chain with H85N
notes: as for B6
B9: re-constrained AptA, RLNKPLPSLPVW in full-length STM (designed binder)
chain: B6 chain with H85W
notes: as for B6
B10: re-constrained AptA, RLNKPLPSLPVV in full-length STM (designed binder)
chain: B6 chain with H85V
notes: as for B6
B11: re-constrained AptA, RLNKPLPSLPVF in full-length STM (designed binder)
chain: B6 chain with H85F
notes: as for B6
B12: re-constrained AptA, RLNKPLPSLPVC in full-length STM (designed binder)
chain: B6 chain with H85C
notes: as for B6
B13: re-constrained AptA, RLNKPLPSLPVM in full-length STM (designed binder)
chain: B6 chain with H85M
notes: as for B6
B14: re-constrained AptA, RLNKPLPSLPVT in full-length STM (designed binder)
chain: B6 chain with H85T
notes: as for B6
B15: re-constrained AptA, RLNKPLPSLPVP in full-length STM (designed binder)
chain: B6 chain with H85P
notes: as for B6
B16: re-constrained AptA, RLNKPLPSLPVK in full-length STM (designed binder)
chain: B6 chain with H85K
notes: as for B6
B17: re-constrained AptA, RLNKPLPSLPVY in full-length STM (designed binder)
chain: B6 chain with H85Y
notes: as for B6
B18: re-constrained AptA, RLNKPLPSLPVQ in full-length STM (designed binder)
chain: B6 chain with H85Q
notes: as for B6
B19: re-constrained AptA, RLNKPLPSLPVS in full-length STM (designed binder)
chain: B6 chain with H85S
notes: as for B6
B20: re-constrained AptA, RLNKPLPSLPVA in full-length STM (designed binder)
chain: B6 chain with H85A
notes: as for B6
B21: re-constrained AptA, RLNKPLPSLPVE in full-length STM (designed binder)
chain: B6 chain with H85E
notes: as for B6
B22: re-constrained AptA, RLNKPLPSLPVI in full-length STM (designed binder)
chain: B6 chain with H85I
notes: as for B6
B23: re-constrained AptA, RLNKPLPSLPVG in full-length STM (designed binder)
chain: B6 chain with H85G
notes: as for B6
B24: re-constrained AptA, RLNKPLPSLPVL in full-length STM (designed binder)
chain: B6 chain with H85L
notes: as for B6
B25: STM peptide aptamer 01 (designed binder)
chain: MIPWGLSEAKPATPEIQEIVDKVKPQLEEKTNETYGKLEAVQYKTQVDAGTNYYIKVRAGDNKYMHLKVFNGPVPNKPLPALPVIGPGVNKPLPALPAHGPIRNKPLPSLPASGPPGQNEDLVLTGYQVDKNKDDELTGF
notes: Insert (with its GP ends) constrained in STM
B26: STM peptide aptamer 09 (designed binder)
chain: MIPWGLSEAKPATPEIQEIVDKVKPQLEEKTNETYGKLEAVQYKTQVDAGTNYYIKVRAGDNKYMHLKVFNGPMLNKPLPSLPVGGPGLNKPLPSLPAAGPPGQNEDLVLTGYQVDKNKDDELTGF
notes: as for B25
B27: STM peptide aptamer 06 (designed binder)
chain: B26 chain with M74V, L75V, G85K, G88D, L89V, A99V
notes: as for B25
B28: STM peptide aptamer 04 (designed binder)
chain: B26 chain with M74Y, K77R, V84A, G85Y, G88W, L89V, K91R, A98L, A99S
notes: as for B25
B29: STM peptide aptamer 10 (designed binder)
chain: B26 chain with M74I, S81A, V84L, G85R, G88D, L89P, K91R, S95A, A98V, A99T
notes: as for B25
B30: STM peptide aptamer 07 (designed binder)
chain: B26 chain with M74P, L75N, N76V, S81A, V84L, G85M, G88L, S95A, A98L, A99D
notes: as for B25
B31: STM peptide aptamer 11 (designed binder)
chain: B26 chain with M74F, L75P, S81A, V84L, G85T, G88V, K91R, S95P, A98R, A99N
notes: as for B25
B32: STM peptide aptamer 20 (designed binder)
chain: B26 chain with M74R, L75M, V84L, G88A, L89M, S95A, A98L, A99Q
notes: as for B25
B33: STM peptide aptamer 13 (designed binder)
chain: B26 chain with M74Y, V84L, G85C, G88S, L89V, K91R, S95A, A98D, A99V
notes: as for B25
B34: STM peptide aptamer 08 (designed binder)
chain: B26 chain with M74D, L75P, K77R, G85T, G88Y, S95A, A98V, A99S
notes: as for B25
B35: STM peptide aptamer 17 (designed binder)
chain: B26 chain with M74E, L75P, S81A, V84L, G85T, G88V, K91R, S95P, A98R, A99N
notes: as for B25
B36: STM peptide aptamer 02 (designed binder)
chain: B26 chain with M74V, G85M, G88T, L89P, S95P
notes: as for B25
B37: STM peptide aptamer 03 (designed binder)
chain: B6 chain with R74D, S81A
notes: Insert (with its GP ends) constrained in STM; also called Apt03
B38: STM peptide aptamer 05 (designed binder)
chain: B6 chain with R74N, S81A, H85L
notes: Insert (with its GP ends) constrained in STM; also called Apt05; Pep05

The binders below were run against T1, SH3 domain of yeast Sho1p (yeast two-hybrid bait, pEG202-Sho1-SH3) (yeast, UniProt P40073 300-367, limits assumed) (assay: yeast two-hybrid screen).
T1 construct: domain: SH3 domain; also called Sho1p SH3 domain
T1 sequence (P40073 300-367 limits assumed): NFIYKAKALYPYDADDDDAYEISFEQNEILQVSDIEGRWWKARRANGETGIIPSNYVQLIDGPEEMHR
Text: (§1) Degenerate oligonucleotide cassettes were made by annealing and amplifying P20 and P21 encoding a biased library designed around the Pbs2p proline rich sequence ([…]) (SEQ ID NO: 33) that interacts with the SH3 domain of Sho1p. Translation of the cassette gives X(L/V/P/A)N(K/R)PLP(P/S/A)LP(L/V/P/A)X (SEQ ID NO: 34). At the DNA level, this oligonucleotide should give rise to a library with a theoretical complexity of 98,304. The cassette was ligated into STM pJG4-5, and grown up in XL10 Gold cells (Stratagene). The midi-prepped (Qiagen) DNA was used to create a yeast library of 6×10⁴ cells in EGY48, theoretically covering 60% of the sequences encoded by the library. These cells were mated with EGY42 cells carrying pEG202-Sho1-SH3, made as described above. Interactors were selected on -UHTL/X-Gal/Gal-Raff plates for 4 days, picked and the plasmids rescued into E. coli KC8 cells. The plasmids were transformed back into EGY48 to confirm interaction with the SH3 domain of Sho1p in EGY42 using an interaction-mating matrix.

Binder	binding result
B1	binds
B2	binds
B3	binds
B4	binds

Each binder was assayed against T1, SH3 domain of yeast Sho1p (yeast …) (assay: yeast two-hybrid, Sho1-SH3 binding).
Text: We noted that other peptides containing a leucine at −5 (such as Apt03 and 05) were not inhibitory. Unlike AptA, these two peptide aptamers are constrained. To test the idea that constraint prevents the PPII helix of peptide aptamers such as Apt03 and 05 from productive interaction with Sho1 SH3, we replaced the C-terminal stop codon of AptA with codons encoding each amino acid residue in turn to make AptA a full-length peptide aptamer constrained in STM. After re-constraint, only one of the seven amino acid residues P, V, C, D, H, F and W at +5 allow binding to Sho1 SH3 in the context of a constrained protein (Table IV). This contrasts with the findings of Feng et al [Feng S, Chen J K, Yu H, Simon J A, Schreiber S L. 1994. Two binding orientations for peptides to the Src SH3 domain: development of a general model for SH3-ligand interactions. Science. 266: 1241-7] and Rickles et al [Rickles R J, Botfield M C, Zhou X M, Henry P A, Brugge J S, Zoller M J. 1995. Phage display selection of ligand residues important for Src homology 3 domain binding specificity. Proc Natl Acad Sci USA. […] In addition, none of the constrained AptA variants show the ability to inhibit Pbs2-Hog1 activation (Table IV). […] They further indicate that in the context of STM, the presence of one of the 7 permissive residues at position +5 either allows the formation of a left handed type II polyproline helix or allows interaction at a surface on Sho1 distinct from the SH3 domain.

Binder	binding result
B5	binds
B6	binds
B7	no binding
B8	binds
B9	binds
B10	binds
B11	binds
B12	binds
B13	no binding
B14	no binding
B15	binds
B16	binds
B17	no binding
B18	no binding
B19	no binding
B20	no binding
B21	no binding
B22	no binding
B23	no binding
B24	no binding

These binders were tested against T1, SH3 domain of yeast Sho1p (yeast …) (assay: yeast two-hybrid screen, confirmed by interaction mating).
Text: as §1

Binder	binding result
B25	binds
B26	binds
B27	binds
B28	binds
B29	binds
B30	binds
B31	binds
B32	binds
B33	binds
B34	binds
B35	binds
B36	binds
B37	binds
B38	binds
